In patent US7282356B2, “D-aminoacylase mutants” (Daicel Chemical Industries, Ltd., priority 2002, dated 2007):

Experiments:
[1] = Production of D-tryptophan from N-acetyl-DL-tryptophan using cell-free extract (10 U/mL); format: biochemical; conditions: for Yield of D-Trp: 10 U/mL reaction solution, 30° C., 24 hours
Procedure: Wild-type or mutant D-aminoacylase extract can be obtained by, for example, recovering microbial cells by filtration and centrifugation, suspending them in a buffer, and disrupting them using a Bead-Beater (BIOSPEC PRODUCT). Reaction solutions containing 10 U/mL enzyme thus obtained 300 mM Tris-hydrochloride buffer (pH 8.0), and 12%, 15%, 17%, 20% or 22% N-acetyl-DL-tryptophan, are incubated at 30° C. for 24 hours while being shaken. Thus, D-tryptophan can be produced in 80% or higher yield from 12%, 15%, or 17% substrate, or in 50% or higher yield from 20% or 22% substrate.
0.5 ml of a reaction solution containing 5 units of cell-free extract obtained in the step of enzyme purification described in Example 19 or Example 23, 12%, 15%, 17%, 20%, or 22% N-acetyl-DL-tryptophan, and 300 mM Tris-hydrochloride buffer (pH 8.0) was incubated at 30° C. for 24 hours while being stirred. While with the wild type the yield of D-tryptophan was lower than 10% at any substrate concentration, with the mutant 3AD-0089 the yield of D-tryptophan was 80% or higher at substrate concentrations of up to 17%. Furthermore, the mutant was confirmed to enable the production of D-tryptophan in 66% yield in the presence of 20% substrate, or in 58% yield in the presence of 22% substrate.

[2] = Third generation mutants: activity of producing D-tryptophan (TNBS method); format: cell-based, E. coli JM109; conditions: 2% N-acetyl-DL-tryptophan, 3.5% N-acetyl-L-tryptophan, 25° C., 30 minutes
Source text: The amino acid substitution in each mutant, and the effect of the amino acid substitution, which was estimated as an activity of producing D-tryptophan in the presence of 5% N-acetyl-DL-tryptophan and 2% N-acetyl-L-tryptophan, are shown in Table 2. The “activity”, as used herein, refers to “a colorimetric value of the reaction solution determined at the end of reaction by the TNBS method (Abs. 420)/the degree of bacterial growth (OD600)”.
Cells of the E. coli transformant obtained in Example 9 were inoculated on an LB agar plate. Each colony grown on the plate was inoculated with a toothpick to a well of a microtiter plate which contained 150 μl of LB culture medium containing 50 μg/ml ampicillin and 0.02 mM IPTG, and then the microtiter plate was covered with Breathable Sealing Membrane (Nalgene). The microtiter plate was incubated at 37° C. for 18 hours while being shaken. 10 μl of the culture medium solution was added to the reaction solution containing 300 mM Tris-hydrochloride buffer (pH 8.0), 0.1% cetylpyridinium bromide, 2% N-acetyl-DL-tryptophan, 3.5% N-acetyl-L-tryptophan, and distilled water in the wells of a microtiter plate. The plate was incubated at 25° C. for 30 minutes while being shaken. Then, D-tryptophan produced from N-acetyl-D-tryptophan was quantified by colorimetry according to the TNBS method using D-tryptophan as standard. […]

[3] = D-aminoacylase activity assay (20 mM N-acetyl-D-tryptophan, TNBS method); format: biochemical
Procedure: The enzyme reaction can be achieved by incubating 1.0 ml of a reaction solution containing 20 mM N-acetyl-D-tryptophan (Sigma), 50 mM Tris-hydrochloride buffer (pH 7.5), and an enzyme solution at 30° C. for 10 minutes. Then, the reaction is stopped by adding 0.5 ml of a stop solution containing TCA (comprising 0.11 M trichloroacetic acid, 0.22 M sodium acetate, and 0.33 M acetic acid). The amount of D-tryptophan produced can be determined by TNBS method (Biosci. Biotech. Biochem., 58, 24 (1994)).
For example, 0.25 ml of 100 mM Na2B4O7 is added to 0.25 ml of the stop solution, 10 μl of 110 mM TNBS (trinitrobenzenesulfonic acid) solution is added to the mixed solution, and immediately thereafter, the resulting mixture is stirred. After the mixture is allowed to stand for five minutes, 1 ml of 100 mM NaHPO4 containing 1.5 mM Na2SO3 is added to the mixture to stop the color reaction. Then, the absorbance of the solution is determined at 420 nm. One unit of the enzyme activity is defined as the amount of enzyme that catalyzes the production of 1 μmol of D-tryptophan at 30° C. for one minute.

[4] = Activity of the cloned, purified enzyme to N-acetyl-L-tryptophan; format: biochemical; conditions: cloned enzyme purified from E. coli
Source text: The present inventors focused on the fact that the D-aminoacylase derived from Alcaligenes denitrificans subsp. xylosoxydans MI-4 strain has an exceedingly high specific activity (404 U/mg) to N-acetyl-D-methionine. According to references, the D-aminoacylase had only 20 U/mg or lower activity to N-acetyl-D-tryptophan. The present inventors cloned the gene encoding the enzyme into E. coli, purified the cloned enzyme, and measured its specific activity. […] Thus, this enzyme can be useful to produce D-tryptophan from N-acetyl-DL-tryptophan.

[5] = Reaction of third generation mutants with 7% N-acetyl-DL-tryptophan in microtiter plate; format: cell-based, E. coli HB101; conditions: 25° C., 8 hours
Procedure: With a conventional method, recombinant plasmid DNAs were purified from total 10 strains of E. coli JM109 transformant obtained in Example 16. Cells of E. coli HB101 strain were transformed with the recombinant plasmid DNAs to prepare transformants. Each colony grown on a culture plate was inoculated with a toothpick to a well of a microtiter plate which contained 150 μl of LB culture medium containing 50 μg/ml ampicillin and 0.02 mM IPTG, and then the microtiter plate was covered with Breathable Sealing Membrane (Nalgene). The microtiter plate was incubated at 37° C. for 18 hours while being shaken. The reaction was carried out using total 200 μl of a reaction solution containing 100 μl of culture medium solution, 300 mM Tris-hydrochloride buffer (pH 8.0), 7% N-acetyl-DL-tryptophan, and distilled water in each well of a microtiter plate at 25° C. for 8 hours while being shaken. When all of the N-acetyl-D-tryptophan contained in substrate is converted to D-tryptophan, the yield is taken as 100%. While the yield was about 70% with the wild type, the yield was roughly 100% with a third generation mutant obtained in […]. Thus, the competitive inhibition was confirmed to be impaired in the third generation mutants.

B1: wild-type: D-aminoacylase derived from Alcaligenes denitrificans subsp. xylosoxydans MI-4, SEQ ID NO: 1 (protein)
chain: MSQSDSQPFDLLLAGGTLIDGSNTPGRRADLGVRGDRIAAIGDLSDAAAHTRVDVSGLVVAPGFIDSHTHDDNYLLRRRDMTPKISQGVTTVVTGNCGISLAPLAHANPPAPLDLLDEGGSYRFERFADYLDALRATPAAVNAACMVGHSTLRAAVMPDLQRAATDEEIAAMRDLAEEAMASGAIGISTGAFYPPAARATTEEIIEVCRPLSAHGGIYATHMRDEGEHIVAALEETFRIGRELDVPVVISHHKVMGQPNFGRSRETLPLIEAAMARQDVSLDAYPYVAGSTMLKQDRVLLAGRTIITWCKPFPELSGRDLDEVAAERGKSKYDVVPELQPAGAIYFMMDEPDVQRILAFGPTMIGSDGLPHDERPHPRLWGTFPRVLGHYARDLGLFPLETAVWKMTGLTAARFGLAGRGQLQAGYFADLVVFDPATVADTATFEHPTERAAGIHSVYVNGAPVWQEQAFTGQHAGRVLARTAA
modifications: Alcaligenes denitrificans subsp. xylosoxydans MI-4
- Yield of D-Trp ([1]; 12% N-Ac-DL-Trp): 9.4%
- Yield of D-Trp ([1]; 15% N-Ac-DL-Trp): 3.5%
- Yield of D-Trp ([1]; 17% N-Ac-DL-Trp): 1.8%
- Yield of D-Trp ([1]; 20% N-Ac-DL-Trp): 0.5%
- Yield of D-Trp ([1]; 22% N-Ac-DL-Trp): 0.5%
- yield of D-tryptophan ([1]; at any substrate concentration (12% to 22%)): lower than 10%
- Activity of producing D-tryptophan [2]: 2.65
- D-aminoacylase activity of cell extract ([3]; cell extract of E. coli JM109 transformant): 34 U/mg
- specific activity of the purified enzyme ([3]; purified enzyme, N-acetyl-D-tryptophan): 528 U/mg
- activity to N-acetyl-L-tryptophan [4]: inactive
- yield [5]: about 70%
